Results as given in patent US20180111972A1.

Columns and labels:
[1] = target: human PDGFR on BJ-5ta human fibroblasts (human) (UniProt P09619); assay: flow cytometry on cells, soluble ligand titrated, anti-FLAG-PE
[2] = target: mouse PDGFR on NIH/3T3 mouse fibroblasts (mouse) (UniProt P05622); assay: as above
[3] = target: human PDGFR on BJ-5ta human fibroblasts (human) (UniProt P09619); assay: flow cytometry on BJ-5ta cells, soluble ligand titrated 5 h at 4 C, anti-FLAG-PE
[4] = target: mouse PDGFR on NIH/3T3 mouse fibroblasts (mouse) (UniProt P05622); assay: flow cytometry on NIH/3T3 cells, soluble ligand titrated 5 h at 4 C, anti-FLAG-PE
[5] = target: human PDGFR on BJ-5ta human fibroblasts (human) (UniProt P09619); assay: flow cytometry titration of the soluble FLAG-tagged protein on BJ-5ta cells, anti-FLAG detection

Sequence of scPDGF, single-chain version of wild-type PDGF-BB, soluble, FLAG and hexahistidine tags (ligand) (chain, part): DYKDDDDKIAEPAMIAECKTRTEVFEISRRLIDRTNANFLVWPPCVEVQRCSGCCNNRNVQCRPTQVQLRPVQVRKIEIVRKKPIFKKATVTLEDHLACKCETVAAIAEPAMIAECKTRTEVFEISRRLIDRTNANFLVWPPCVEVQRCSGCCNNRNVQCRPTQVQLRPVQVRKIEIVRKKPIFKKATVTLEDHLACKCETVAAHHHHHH

With “scPDGF, single-chain version of wild-type PDGF-BB, soluble, FLAG and hexahistidine tags (ligand)” the Kd [1] was 1.5 pM, the Kd [2] was 2.5 pM and the Kd [3] was 1.5 pM. The Kd [4] was 2.7 pM and the EC50 (read off the curve) [5] was 1 pM.
